# Test results reported in publication PMC4354731.
# B1: succinate dehydrogenase (SdhCDAB), SdhB subunit (Escherichia coli K-12) (protein)
# chain 1: MRLEFSIYRYNPDVDDAPRMQDYTLEADEGRDMMLLDALIQLKEKDPSLSFRRSCREGVCGSDGLNMNGKNGLACITPISALNQPGKKIVIRPLPGLPVIRDLVVDMGQFYAQYEKIKPYLLNNGQNPPAREHLQMPEQREKLDGLYECILCACCSTSCPSFWWNPDKFIGPAGLLAAYRFLIDSRDTETDSRLDGLSDAFSVFRCHSIMNCVSVCPKGLNPTRAIGHIKSMLLQRNA
# chain 2: MIRNVKKQRPVNLDLQTIRFPITAIASILHRVSGVITFVAVGILLWLLGTSLSSPEGFEQASAIMGSFFVKFIMWGILTALAYHVVVGIRHMMMDFGYLEETFEAGKRSAKISFVITVVLSLLAGVLVW
# chain 3: MVSNASALGRNGVHDFILVRATAIVLTLYIIYMVGFFATSGELTYEVWIGFFASAFTKVFTLLALFSILIHAWIGMWQVLTDYVKPLALRLMLQLVIVVALVVYVIYGFVVVWGV
# How the values were obtained:
# [1] = substrate: COC1=C(OC)C(=O)C(C)=CC1=O; experiment: succinate:Q0 oxidoreductase steady-state kinetics in membranes; type: biochemical, Escherichia coli; conditions: [3Fe-4S], [4Fe-4S], [2Fe-2S] clusters; FAD; heme b
# [2] = substrate: CC(C)=CCC1=C(O)C(=O)c2ccccc2C1=O; experiment: lapachol:fumarate oxidoreductase steady-state kinetics in membranes; type: biochemical, Escherichia coli; conditions: [3Fe-4S], [4Fe-4S], [2Fe-2S] clusters; FAD; heme b
protein,measurement,setting,value
B1,Km,[1],150 µM
same,kcat,[1],33.9 s⁻¹
same,Km,[2],100 µM
same,kcat,[2],11.9 s⁻¹
